Measured values published in paper PMC6401066, “A dynamically interacting flexible loop assists oligomerisation of the Caenorhabditis elegans centriolar protein SAS-6” (Scientific Reports, 2019).

Legend:
[1] = target: SAS-6 coiled coil (CC interface) (Caenorhabditis elegans) (UniProt O62479); conditions: cited from earlier work
FP = target: the molecule itself; test: FP
[2] = target: the molecule itself; test: fluorescence polarisation; 1,5-IAEDANS on C100 of CeSAS-6N; polarisation against protein concentration in PBS; fit of an ideal self-association model; monomer to NN dimer; three independent experiments
[3] = target: the molecule itself; test: SEC; analytical SEC, Superdex 75 10/300 GL, PBS (20 mM sodium phosphate pH 7.0, 150 mM NaCl, 2 mM DTT); different protein concentrations, up to 10 mg/ml; self-association

## SAS-6 coiled coil (CC interface) (from UniProt O62479)
[1]
  Kd: 1 µM

B1: CeSAS-6N S123E variant (domain or fragment, C. elegans, UniProt O62479 1-168, looked up)
chain: MTSKIALFDQTLIASLLQPLSLNQPDFKAYKTKVKLKISEQRNETSGEKELKFEISRSDDFEFLFSETLNNEKYQILARDHDLTVDFDAFPKVIIQHLLCKNIVKNLEEDGEVDARKKAGYHEIADPGKPTEINIILDAEKNFCSFELFSKTPISKGKIFSIKLHAVR
modifications: 1,5-IAEDANS conjugated to C100 (fluorescence polarisation samples)
notes: SAS-6, C. elegans, N-terminal domain, amino acids 1-168, with S123E; source: E. coli BL21 (DE3), purified (His-Trap HP, thrombin cleavage, Sephadex G75 SEC); not shown: His6, N-terminal, cleaved
FP
  Kd: 48 µM
[2]
  fold increase of NN affinity against CeSAS-6N WT: ~2 fold

B2: C. elegans SAS-6 N-terminal domain plus a short stretch of the coiled coil, wild type (CeSAS-6N-CC WT, amino acids 1-215) (domain or fragment, UniProt O62479 1-215, looked up)
chain: MTSKIALFDQTLIASLLQPLSLNQPDFKAYKTKVKLKISEQRNETSGEKELKFEISRSDDFEFLFSETLNNEKYQILARDHDLTVDFDAFPKVIIQHLLCKNIVKNLEEDGEVDARKKAGYHSIADPGKPTEINIILDAEKNFCSFELFSKTPISKGKIFSIKLHAVRGDHLISHLLKICSSQAVKLSTFYKSADELASLRQKCGDLEKQVEKLS
notes: SAS-6, C. elegans, N-terminal domain plus a short stretch of the coiled coil, amino acids 1-215; Forms a dimer through the coiled coil (calculated mass of the dimer 48.8 kDa) that assembles further through the NN interface; also called WT CeSAS-6_(N-CC); source: E. coli BL21 (DE3), purified (His-Trap HP, thrombin cleavage, Sephadex G75 SEC); not shown: His6, N-terminal, cleaved
[3]
  binding result: binds

B3: CeSAS-6N-CC Δ103–130 (domain or fragment, C. elegans, UniProt O62479 1-215, looked up)
chain: MTSKIALFDQTLIASLLQPLSLNQPDFKAYKTKVKLKISEQRNETSGEKELKFEISRSDDFEFLFSETLNNEKYQILARDHDLTVDFDAFPKVIIQHLLCKNTEINIILDAEKNFCSFELFSKTPISKGKIFSIKLHAVRGDHLISHLLKICSSQAVKLSTFYKSADELASLRQKCGDLEKQVEKLS
notes: source: E. coli BL21 (DE3), purified (His-Trap HP, thrombin cleavage, Sephadex G75 SEC); not shown: His6, N-terminal, cleaved
[3]
  stoichiometry N: 2

B4: C. elegans SAS-6 N-terminal domain, wild type (CeSAS-6N WT, amino acids 1-168) (domain or fragment, UniProt O62479 1-168, looked up)
chain: MTSKIALFDQTLIASLLQPLSLNQPDFKAYKTKVKLKISEQRNETSGEKELKFEISRSDDFEFLFSETLNNEKYQILARDHDLTVDFDAFPKVIIQHLLCKNIVKNLEEDGEVDARKKAGYHSIADPGKPTEINIILDAEKNFCSFELFSKTPISKGKIFSIKLHAVR
modifications: 1,5-IAEDANS conjugated to C100 (fluorescence polarisation samples)
notes: spindle assembly abnormal protein 6 (SAS-6), C. elegans, N-terminal domain, amino acids 1-168; Samples for NMR were isotopically labelled (15N) and carried no fluorophore; also called WT CeSAS-6N; source: E. coli BL21 (DE3), purified (His-Trap HP, thrombin cleavage, Sephadex G75 SEC); not shown: His6, N-terminal, cleaved
[2]
  Kd: ~100 µM
